Results on one molecule are retold here after PMC6770577 (2019).

As usually defined, the Kd is a measure of binding affinity in units of concentration. Low readings indicate tighter binding, high ones weaker binding.

The target of experiment [1] is CaM (Homo sapiens, UniProt P0DP23). The experiment can be described thus: steady-state fluorescence anisotropy. Background: In fluorescence polarisation assays a small probe gives low polarisation when free and higher when bound to something large.
Experiment [2] has as its target T1, S100A1 (Homo sapiens, UniProt P23297).
T1 chain: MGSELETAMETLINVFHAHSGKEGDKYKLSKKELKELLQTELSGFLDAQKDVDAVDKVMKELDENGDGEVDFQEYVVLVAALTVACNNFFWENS
The experiment can be described thus: steady-state fluorescence anisotropy.

No end group written: not given here. *: point of attachment. FITC = O=C1OC2(c3ccc(O)cc3Oc3cc(O)ccc32)c2ccc(NC(=S)*)cc21

Regarding {FITC}-LIGRAYRSNYTRKHFR [TRPM6np], the values for the Kd in experiment [1] and in experiment [2] were 14.9 µM and 17.8 µM, respectively.
